Results: patent publication US20210169973A1

Biological target: murine TMEM219 expressed on murine islets and the murine beta cell line beta-TC (mouse) (UniProt Q9D123)
Assay: cell-based or functional assay

Chain of UniProt Q9D123 (Q9D123 39-240): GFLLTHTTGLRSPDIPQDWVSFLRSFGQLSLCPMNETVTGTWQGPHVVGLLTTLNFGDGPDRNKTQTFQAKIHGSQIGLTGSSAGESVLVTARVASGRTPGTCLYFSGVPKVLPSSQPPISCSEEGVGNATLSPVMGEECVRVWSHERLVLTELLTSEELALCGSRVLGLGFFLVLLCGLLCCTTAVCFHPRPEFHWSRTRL

early apoptosis of murine islets by FACS (Annexin V+ 7AAD-), IGFBP3-treated vs. untreated: 87%
Substance: recombinant human IGFBP3 (Life Technologies, 10430H07H5) (from UniProt P17936 28-291) (ligand)
